According to patent US20240245805A1 (Orna Therapeutics, Inc., priority 2020, published 2024):

B1: Turkey Gallivirus M176 (nucleic acid, listed as Gallivirus sp.)
DNA: CCACTCGCACTTCCTGGATAGTGCGTTAGATATGCCCGACATATCGCTTCCAGGACCAAAGCCCCCCTTTTCTCTTTCCCAACCAGCTTCGCCACTCAAGCTGTAATTCCATGTCCGGTCTTTCCGGCCTTAGTATCATGGAAATGTGGTCGTGCTCAAATGAAATTGAGTTGACATTGATCAATGAAAGTTGCACTGAACTTTGCTAAACTGGCTAGCGCCACCTGGTGTGTGCCGTTGGTCTCCTCACATGGTAACATGTGCCAACGGGCCCGAAAGGCTAGTGGGCAATTACCGCTCCAAGGGAGGGGTACCCACCCCGACCTGAACAGCGGTAATGAAGCTCACCTCCCAGGCTCTGACCCCGAGAAGTTTAGTTATTTAGTAGGTGTAATTAGTACTTGTGATTGGTCAATTTGATAGTAGTTTGAAACGTTATGGATGAATGAGTAGACCCCCTGAAGGTACCCCATTACATGGGATCTGATCAGGGCCACATTCTGCGTGTCTCCCCGCACTTGTGGTTAAAACCATGAAAGTTCATCCCAAACAATCTTTTCCTCTTCTTTTTCTTTTAGTGGTGACAACCTACTGGATTGGTGATTACCAATCTGTACTAGTGTTGTATTAAGACTTGTTGTGTGGAGAAAATGGACTCTTTCAAGAAGATTTTTG
modifications: lipid formulation
B2: Tremovirus B (nucleic acid)
DNA: TTCAAATGGCCCCTGGGTTGATACCCAGTGGTCATTTGGACACTTTGGTAAGGAGGTGTAATTATCCTTCCCATGTGGAACCTAGTGCTTAGGTTTACTTTATATGTTCTTTGTTTGTCCTTTGTACTTTCTATCGGGCAATCTTGTTGTTCAATACAATATGTATTTGAACTGCCTAAGATAAATTCAGTTTTCAACCAACCCCTCTCTTGGGGTTGTGTCTTTCTTTCTTTCTTATATCCTCTTAAGCTGACTTACTTGCTAATCCGACTCCTCGTCAACGGGAGGGTAAAGCAGTATCACTAGGGTATTGTGATGTAGGAGAAAAAGTAAGTAGAGATAGTGCATGTAACGAAAGTGACTTGGTACTTTAAACTCTCTTAATCCCAAAGTGTGGTATTGGTCATGTTGGAGTAGGCTACGGGTGAAACTCCTTCACATTTAGTAATGTGTTCACACGCTAACGCTACGGTAGATGACAGACTAGGTCTTATTCTCAACGTAGGGGGACGGGTGTATGTTCATGATTAGCCACATATTAAGGTTTTGAGGGGCTGAGTCATATAAGTATGTGCATTAATTTCTGGTACTGGTCCCTGGGGACTGGCCCTTTTCTAGGTTGATTTTAGTTTCCCCAATTTTTAAAAACTAATGAGATTTACGAC
modifications: Tremovirus B
B3: Hepatovirus G1 (nucleic acid, listed as Hepatovirus sp.)
DNA: GCAAGGGGTGGTTTTAACCTTGCACGCGTTTACCGTGCGTTAACGGTTTTCCATGTTTGTATGTCTTGTTTGTATTATGTGTTTTGTAAATATTAATTCCTGCAGGTTCAGGGTTCTTTAATCATGTTGGGCTGTACCCACACTCAACTTTTGGCCATAAGTGAGTTTCTTAACGAACCTTTTAACACAGGATGTTATTAGGGCCCAATATTTTCCCTGAGGCCTTCTTTGGCCTCTATTTTTTCCCCTTTTCTATCTCCTTGTATTCCGGGCTCACGTGATGCCAATGGACTGACCCATGCGCCCGTGGGGGTTAACTACTGGAGTAGCCAGTAGCTGTAGGTGCTAAAAGTCACGTACGTGTAAGACTGGACGAGACCTCTCAGCTATAACTGAAAGTAGTAAGTATGTCTGAACTTCTTGAAGGGGTAGGCTACGGGTGAAACCCCTTAGGTTAATACTCATATTGAGAGATACCTCTGATAGGTGAAGGTTTCCGGTAGAGGTGAGTTTAACGACAAAGCCTCTCAACGGATGTGGGCCCACCTCATCAGCAAGATGCTTTCATACCCAATACCGTAGGGGCTGGGTTGTTGAGTTCAGTCCCAAGCGTCCCTCCCGCAAGGTTGTAGGGGTACTCAGGGGCATTTAGGTTTCCACAATTAAACAAATACA
B4: Hepatovirus D (nucleic acid)
DNA: CTTTGGATGCCCATAGTGCGGGGGTATAAATACCGCACTCCCTTTAGCTGTTCCGAGGGTATCGGAACCTATATGTTTGTTTTCTGTCTGTCTGTCAGCTTTATGTGTGCTCGTCCCCTTTAGGGCACTCATTTCAGCTTGCTTTCATTCTTTTCTTCCCCGGTTCTCACCTTACCGGAGGCACTGGCCGTTGCGCCCGGCGGGGTCAACCTAGTGATTAGCACTAGGCTGTAGGTGTCTAAAGTGGTGACATTAAGACTTGGTAACTGATTTCAGCACTGTTAACTGATGTTGGGGATGACTTGATTGATCTTCTGGAAGGGGTAGGCTACGGGTGAAACCCCTTATCTTAATACCACTATGTAGAGATAGATTCAGTAGGTTAAGGGCAGTGGATAAGGTTGAGTTCATTTTGGACAATAAACCTTCAACACTGGTGGACCCAATCTCACTGACCAGATGCTTTCTTGACTGATCCTTCAGAGGGGTGATTCTTCTGAATAGGTTGCCTTGACACTGATGCCTGAGACCCATTGGGTCGGGCCTTAAATCATGGAACTCCACTGGACTTTCATGGCCTAGCTTCTGCCTTAGACAGACTCTGGGGCCCCACGACCCTCTGGGCCCTTCGGGGTACTCAGGGGCATTTAGGTTTTTCCACAATTAAAAGAGTTA
modifications: Hepatovirus D
B5: Hepatovirus H2 (nucleic acid, listed as Hepatovirus sp.)
DNA: GTCATGTTTCTCTTTAAGAACACTCAATTTTGGCCATAAGTGAGACTCTTGTCGAACCTTTCATGTCAGGACCATGTTAGGGCCATTATCCTTTTCCCTGGGGCATTCTTCTTGCCCCTGTTTCATCTTTCTATCATCTTTCTTCCGGGCTCTCACAATGCCAATGGAGCGACCGATGCGCACGTCGGGGTTAACCCATGGATTAGCCATGGGCTGTAGCTGCTAAAAGTTGTGACTCCTGAAGCATACTATCAATGGTAGTAGATGTAACTGAAACACTGAAGCTTCTCTGATCTTGAAAGAAGGGTAGGCTACGGGTGAAACCCTTCAGGTTAATACTCATATTGAGAGATACCTTTGGTAGGTTAACGTTGGCGGATAATGTTGAGTTTAACGACAATAAACATTCAACGCCTGTGGGCGAACCTCACCAATTTCATGCTTTGAAGTGAATGTGCGTAGGGTCTCTATCGGAGATGCTATGTGGATGGTGCCCTCCCTGGAAACAGGTTGTAGGGGTACTCAGGTGCACTTAGGTTTCCACATTTTAAAGATTTTTC
B6: Hepatovirus I (nucleic acid)
DNA: GGCTGCCTGTGTCTCAGGGGTAAGTACTGGGGCCGCGTTGACCGTGCGGTACGGTTATGCTTTTAGATTAGGATGTCCGTCTGTCCGGCACTCTCTTTTGCTTAAAATGGCCTTAAATCCATGGGAGGCGTAACCATGGGCCCTTTGTTACCTAGACATGATTGCATTGGGGGCCGTCCTTGGGGCTTAGGCCCCAGCCATTTCTCTTGACTCGTCTAAGAGTTTACTTCATCCTTTTCTTTACTTTATTTTCCAGGCTCTCAGCATGCCGACGGCTCTGACCACTGCGCCCGGTGGGGTTAACTGCATGATTAGCATGCAGCTGTAGGAGTTAAAAGTGCTGACAGGCCAATTCTGACGTAAGTCCACTCTATATTAACTTGATCAAGTAAGGTTGATTGATCTTTGTGAGAGGGTAGGCTACGGGTGAAACCCTCTAGGTTAATACTCATATTGAGAGATACCTCCAGAAGGTGAAGGTTGGCGGATATTGGTGAGTTCTTTTAGGACAAAAACCTTTCAACGCCTGTGGGCCCACCTCACTGGCACAATGCTTTCATCCCCAATTGTGATGGGTAGTTTGGACTGAAATCAGGAGTAACCTGCCCTACGAGTTTAGGGGTAGTTCAGGGGTATTTAGGCTTCCACATTTGATAGAGTTTATGAGAGTGAGCC
modifications: Hepatovirus I
B7: Hepatovirus C (nucleic acid)
DNA: TTCAAAAGCCCCAGCGGGGTTTCATTACCCCGCTGTGGCTTTTGGACTTCCCTAGGATGGGGAAGTAAATTACCATCCTCGCGTTTGCCGTGCGTTAACGGCTACTTTTCTTCTAGCTGTAGAAGTAAAATTCAGCATGTTTTATGTTTGTTTGTCTTGTTTGTTATATACATTTTTACACTCCTACAAATGCACATGAAGAACAGTTTGTAGAGATTAACAAACGCTTAGCTGAACCTAGGTGGTGAATCTAGTAGTAAGATAAGTAGAGGAAGCTATACCTTAAGTTGGTTGGGCCCTCGTGTTTGCTCTATAAACAAAACCAAGTGAGTAGAGTGGATGAACAGTACTAAATCCCTGAGTACAGGGAACCTCACAGGTGTGATACACTTATGTCTATGTGACCTGGTTGGAGGTTGGGCGTGCCCTATGATACTGGAGTGGGAGATCTTTTGGGGAACCCACGTTTTCACACTGCCTGATAGGGTCTTGCCGAGAGACTCACTTGTTTCGGCTGTACTTGTAAC
modifications: Hepatovirus C
B8: Fipivirus A (nucleic acid)
chain: TGCGGGTAAACTCCCGCATGTGTGAATGAGGCGATGTCCCAGGAACTAACTGCCGATCCTGGTTTTAACTACGATCCGTATTTGTTACTAATGCGATATCCCCCCATTGTTTGCCTCCATGTTGTTTTCAACGCTTTTGGCCTTGAGTGTTATCAAGTGTTTTAGCGACATAGTGGGAAGCTACGGCTGCGTCCCCATTTTTGAGTGGCGACCCAGTTTTAGTGGCCACTCTGTCCCTGAACTGCGCTATAATGTGAATTTATGTTCACAAAAACGGACTGATGTAACTGTTAATGACTAAGGAATAGTACCTCACTGAAGTATCAAGACCCCGTTCGAGCGGTGTACATATATGGATGGAAACCTTGTCTGAGTCATCTCGAATACTAATCAATGAGGGATGTCGAGTAAGCATATCATGAACCACATAGAATAGTGGGGTTTCGGGGTTAGAGGCTCTCTGCAGCAATGTATCTCTAACACCATGGCCGAAATGAGAGATAGAGACCACGATGTTTGTGTGTAAGTAATGATGTGTGGAAAGAAAATTCTGAATGTTGGTATGATATCAGTCTAAGGGGAGTGGCTCACCTAAGAGCTACCCAAACATTTCACAGCAGACAACATAACGTACTGAGAGTAGTTGGAAGGTTCCAGAAATCAGT
modifications: lipid formulation; Fipivirus A
B9: Fipivirus C (nucleic acid)
chain: CGCGGTTAAACCCGCGCAACCTTCTTTCAGCCGCGTCTGAGTAGCGCGGTTAGTCCTGATACACAGTTTCCTGTTGGGTACTGTGTCTTCGGGTGAATGCTCTTGTGTGAATGTTTTAGGCTGTTTAAGGGAAGCGTTTCCCCGTGCGCTGTGAGGGTTTCTCACGCTCTTTCGGGGTGCAGTCTCTTCTGTTGTTCATTAAGATGTATGGATGCACTGTTGTGAAGGATTTGTGAACTGGGGATCGACACCCCGTGAGGGGTGCCCCAGTGTCCATAGGAGTTTGCTGGAGAGGTGTGTTGCTGTAGTGACTATCCGTGACCTGGCATTCTAAGGTGTTGACCCCAACCTGTGAGGGTCTGGATCGCAGTGTTGAAGTGCTTTGGAGGGTTCAATGGGGTTTCTGTAGTGGATATTATGTGCTTGACGACTACTGGTACGAGTGTATTGGGGGTCTACATGTGTGA
modifications: lipid formulation; Fipivirus C

Tested on: HEK293 cells
Format: cell-based, human
Details: circular RNA encoding Gluc with the listed IRES (UTR truncated to 675 nt) transfected into HEK293 cells; supernatant after 24 hours

Molecule	Expression (luminescence from secreted Gluc protein)
B1	4.37E+05
B2	1.31E+05
B3	1.41E+05
B4	1.47E+06
B5	1.08E+05
B6	8.79E+05
B7	5.08E+05
B8	2.69E+05
B9	1.09E+05
